Data on 30 sequences can be found in the nanobody polyreactivity screen of Harvey et al. (2022).

The data set is described as follows: yeast display, Sf9 membrane polyspecificity reagent, FACS + sequencing; frameworks hold sequencing errors. Summed up: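 Nanobodies from a synthetic yeast display library (Saccharomyces cerevisiae BJ5465), induced 36–48 hours with galactose, were stained 1 hour at 4 °C with 10% biotinylated, detergent-solubilized Sf9 membrane reagent, enriched on streptavidin microbeads, then FACS-sorted. Anti-HA (expression) and streptavidin (reagent binding) fluorescence set low and high (top ~1%) gates. Polyreactivity labels come from the gate of origin. Genes were colony-PCR amplified, MiSeq 2 × 250 sequenced and filtered by CDR length.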
As for “QVQLVESGGGLVQAGGSLRLSCAASGRIFVGYAMGWYRQAPGKERELVAAINRSGSSTYYADSVKGRFTISRDNAKNTVYLQMNSLKPEDTAVYYCNARSANRYGPRYDYWGQGTQVTVSS”, the “polyreactivity (PSR sort gate)” value is recorded as “high polyreactivity”.

On to “QVQLVESGGGLVQAGGSLRLSCAASGFIFSPYAMGWYRQAPGKERELVAAISSGTRTNYADSVKGRFTISRDNAKNTVYLQMNSLKPEDTAVYYCAAKYRGTYDSRVYYWFYYWGQGTQVTVSS”, for which the “polyreactivity (PSR sort gate)” value is listed as “high polyreactivity”.

Regarding “QVQLVESGGGLVQAGGSLRLSCAASGSTFKYYAMGWYRQAPGKERELVARISIRGGSTYYADSVKGRFTISRDNAKNTVYLQMNSLKPEDTAVYYCAAVGYFGGYRYYYWGQGTQVTVSS”, the “polyreactivity (PSR sort gate)” value is listed as “high polyreactivity”.

Regarding “QVQLVESGGGLVQAGGSLRLSCAASGFTFSWYAMGWYRQAPGKERELVAAITRSGGSTNYADSVKGRFTISRDNAKNTVYLQMNSLKPEDTAVYYCNAAGYRRSTWWYDYWGQGTQVTVSS”, the “polyreactivity (PSR sort gate)” value is “high polyreactivity”.

With “QVQLVESGGGLVQAGGSLRLSCAASGFIFTFYAMGWYRQAPGKEREFVASIDWGDGSTYYADSVKGRFTISRDNAKNTVYLQMNSLKPEDTAVYYCAHDYDGYVWDTEYDYWGQGTQVTVSS”, the “polyreactivity (PSR sort gate)” value was “low polyreactivity”.

As to “QVQLVESGGGLVHAGGSLRLSCAASGRIFYQYAMGWYRQAPGKERELVAAIRYRDDGTYYADSVKGRLTISRDNAKNTVYLQMNSLKPEDTAVYYCAGKQWGRYGYWGQGTQVTVSS”, the “polyreactivity (PSR sort gate)” value is reported as “high polyreactivity”.

As to “QVQLVESGGGVDQAGGSLRLSCAASGSTFHLYAMGCYRQAPGKERESVAAIRGRGGNTYADSVKGRFTISRDNAYNTVYLQMNSLKPEDTAVYYCAAPLLRDLRSPYSYNYWVQGTQVTVSS”, the “polyreactivity (PSR sort gate)” value was “low polyreactivity”.

On to “QVQLVESGGGLVQAGGSLRLSCAASGSIFFTYAMGWYRQAPGKERELVAAISGVVSTYYADSVKGRFTISRDNAKNTVYLQMNSLKPEDTAVYYCAADYSWTGFGWEYDYWGQGTQVNVSS”, for which the “polyreactivity (PSR sort gate)” value was “low polyreactivity”.

Turning to “QVQLVESGGGLVQAVGSLRLSCAASGSTFYPYAMGWYRQSPGKERELVAAISISGGITYYADSVKVRFTISRDNAKNTVYLQMNSLKPEDTAVYYCAAEYLAVSGYWYDYWGQGTQVTVSS”, the “polyreactivity (PSR sort gate)” value is on record as “high polyreactivity”.

Regarding “QVQLVESGGGLVQAGGSLRLSCAASGRTFLVNAMGWYRQAPGKERELVAAISQRGGSTDYADSVKGRFTISRDNAKNTVYLQMNSLKPEDTAVYYCAVRWGYLYDYWGQGTQVTVSS”, the “polyreactivity (PSR sort gate)” value is “low polyreactivity”.

“QVQLVESGGGLVQAGGSLRLSCAATGITFYINAMGSYRQAPGKERELVAVIDSRGSSTFYADSVKGRFTISLDYAKNTVYLQMNSLKPEDTAVYYCAVEGYPGRYRDPGDLYYYWGQGTQVTVSS”: the “polyreactivity (PSR sort gate)” value is reported as “low polyreactivity”.

As for “QVQLVESGGGLVQAGGSLRLSCAASGFILVFYAMGWYRQAPGKERELVAAIDWSGTITYYADSVKGRFTISRDNAKKTVYLQINSLKPEDTAVYYCAADGEPFYDFDYWGQRTQVTVSS”, the “polyreactivity (PSR sort gate)” value is “high polyreactivity”.

With “QVQLVESGGGLVQAGGSLRLSCAASGRIFYRYAMGWYSQAPGKESELVAAITWRGGSTSYPDSVKGRFTISRDNAKNTVYLQMNSLKPEATAVYYCAAAAYGVPWRSYLGVFKSHMDYWGQGTQVTVSS”, the “polyreactivity (PSR sort gate)” value is “high polyreactivity”.

As to “QVQLVESGGGLVQAGGSLRLSCAASGSTFSYYAMGWYRQAPGKERELVAAISSRGGSTYYADSVKGRFTISRDNAKNTVYLQMNSLKPEDTAVYYCNADHQFRSSVSGDHDYWGQGTQVTVSS”, the “polyreactivity (PSR sort gate)” value is listed as “high polyreactivity”.

In the case of “QVQLVESGGGLVQAGGSLRLSCADSGSIFKYYAMGWYRQAPGKERELDASISWSGGTTYYADSVKGRFTISRDNAKNTVYLQMNSLKPEDTAVYYCNARWWVRYSNKYDYWGQGTQVTVSS”, the “polyreactivity (PSR sort gate)” value is on record as “high polyreactivity”.

Take “QVQLVESGGGLVQAGGSLRLSCAASGLTFYYYAMGWYRQAPGKERELVAAITSGGITYYADSVKGRFTISRDNEKNTVYLQMNSLKPEDTAVYYCAARYHIDTLFYGSRYDYWGQGTQVTVSS”: the “polyreactivity (PSR sort gate)” value is “high polyreactivity”.

Consider “QVQLVESGGGLVQAGGSLRLSCAASGFIFWTNTMGWYRQAPGKERELVAAISRSGGSTYYADSVKGRFTISRDNAKNTVYLQMNSLKPEDTAVYYCAKGYRGYSYGYWGQGTQVTVSS”, for which the “polyreactivity (PSR sort gate)” value is “high polyreactivity”.

Regarding “QVQLVESGGGLVQAGGSLRLSCAASGRTFRYNTMGWYRQAPGKERELVAAITWSGGRTYYADSVKGRFTISRDNAKNTVYLQMNSLKPEDTAVYYCNADVPYSRSIYGFYYWGQGTQVTVSS”, the “polyreactivity (PSR sort gate)” value was “high polyreactivity”.

Regarding “QVQLVESGGGLVQAGGSLRLICAASGRTFARYTMGWYRQARGKERELVASITRGGSTYYADSVKGRFTISRDNAKITVYLQMYSLKPEDSAVYYCNAVYIVGGDWGQGTQVTVSS”, the “polyreactivity (PSR sort gate)” value is given as “high polyreactivity”.

Turning to “QVQLVESGGGLVQAGGSLRLICAASGRTFYPNAMGWYRPAPGKERELVAAINSGDSTSYADSVKGRFTIARDNAKNTVYLQMNRLKPEDTAVYYCAAAEWYQFFIYRYTYEYWGQGTQVTVSS”, the “polyreactivity (PSR sort gate)” value is given as “low polyreactivity”.

“QVQLVESGGGLVHAGGSLRLSCAASGSIFFHNAMGWYRQAPGKERELVAAISGGGSTTYADSVKGRFTISRDNAKNTVYLQMNSLKPEDTAVYYCAKSYRYYALHYSPGWYNYWGQGTQVTVSS”: the “polyreactivity (PSR sort gate)” value is listed as “high polyreactivity”.

For “QVQLVESGGGLVQAGGSLRFSCAASGSIFRLYAMGWYRLAPGKDRELVATLTSGGNTYADSVKGRFTISRENAKNTVYLQMNSLKPEDTAVYYCHAGQYGYYYKGYDYWGQGTQVTVSS”, the “polyreactivity (PSR sort gate)” value is “high polyreactivity”.

As to “QVQIVESGGGLVQAGGSLRLSCAASGFTFLWYAMGWYRQAPGKERELVAAINSGGRTNYADSVKGRFTISRDNAKNTVYLQMNSLKPEDTAVYYCAKRRPLYAHPDDYWGQGTQVTVSS”, the “polyreactivity (PSR sort gate)” value is listed as “low polyreactivity”.

For the sequence “QVQLVESGGGLVQAGGSLRLSCAASGFIFTPYAMGWYRQAPGKERELVAAISRSAGSTYYADSVKGRFTISRDNAKNTVYLQMNSLKPEDTAVYYCAADSLTYIAYDYWGQGTQVTVSS”, the “polyreactivity (PSR sort gate)” value is given as “high polyreactivity”.

Regarding “QVQLVESGGGLVQAGGRHPVSCAASGRTIAYNAKGLYRQATGKERELVASITSGGSTNYADSVKGRFTISRDYAKNTVYLQMNSLKQEHTADYYFNKDGKYHRVLFEYWGQGTQVTVSS”, the “polyreactivity (PSR sort gate)” value is reported as “low polyreactivity”.

With “QVQLVESGGGLVQAGGSLLLSSAASGRTFWMYAMGWNRQAPGKESELVAGITWRGGSTYYADSVKGRFTISRDIAKNTVYLQMNSQKPEDTAVYYFAAEFWVSRSIWVYYYWGQGTQVTVSS”, the “polyreactivity (PSR sort gate)” value is “high polyreactivity”.

For “QDQLVESGGGLVQAGGSLRLSCAASGLIFVSYAMGWYRQAPGKERELVASITDSDSSTYYADSVKGRFTISRDNAKNTVYLQMNSLKPEDTAVYYCATGGRTEIWYPTLDYWGQGTQVTVSS”, the “polyreactivity (PSR sort gate)” value is on record as “low polyreactivity”.

Turning to “QVQLVESGGGLVQAGGSLRLSCAASGRILVYYAMGWYRQATGKERELVAAITASGASTYYADSVKGRFTISRDNAKKTVYLQMNSLKPEDTAVYYCKVLYPRKYWQVREYYWGQGTQVTVSS”, the “polyreactivity (PSR sort gate)” value is listed as “high polyreactivity”.

Consider “QVHLVESGGGLVQAGGSLRLSSPASGRIFQDNAMGWYRQAPGKERELVAAISSSGGSTYYADSVKGRFTISRDNAKNTVYLHMNSLKPEDTAVYYCAADYYWYWDLYDYWGQGTQVSVSS”, for which the “polyreactivity (PSR sort gate)” value is reported as “high polyreactivity”.

As to “QVQLVESGGGLVQAGGSLRLSCAASGSIFRNYAMGWYRQAPGKERELVSAITRGGGSTYYADSVKARFTISRDNAKNTVYLQMNSLKPEETAVYYCAAVRVFQYKYDRFNYWGQGTQVTVSS”, the “polyreactivity (PSR sort gate)” value is given as “high polyreactivity”.
